We go through 30 sequences from the Immune Epitope Database (IEDB).

Assay [1] has as its target HLA-A*02:01. The assay can be described thus: IEDB peptide-MHC binding, purified MHC/competitive/radioactivity; ≥ and ≤ were set here for values at or beyond the usual limits of such assays. The note with it: source organism: Homo sapiens.
The target in assay [2] is HLA-A*02:01. As to the kind of experiment: IEDB peptide-MHC binding, purified MHC/competitive/radioactivity; filed as Kd, often an IC50 or EC50 that approximates it; ≥ and ≤ were set here for values at or beyond the usual limits of such assays. The note with it: source organism: Homo sapiens.

Regarding ALIICNAII, the IC50 with HLA-A*02:01 [1] was determined as 0.893 µM.

On to ALVARAAVL, for which, in the assay with HLA-A*02:01 [2], the Kd was determined as 11.1 µM.

For the sequence AVMDPFIYA, the IC50 with HLA-A*02:01 [1] was 0.758 µM. As for DLLVSGSNV, the Kd in the assay with HLA-A*02:01 [2] is no less than 50 µM. As for ELRRTLKEV, the Kd in the assay with HLA-A*02:01 [2] was no less than 50 µM. On the same count and under the same terms, the figure for FLAMLVLMA is 2.08 µM. Turning to FLSLGLVSL, the IC50 with HLA-A*02:01 [1] was determined as 0.206 µM.

Turning to GLAANQTGA, in the assay with HLA-A*02:01 [2], the Kd amounted to 2.38 µM. For the sequence GLFLSLGLV, in the assay with HLA-A*02:01 [1], the IC50 amounted to 0.535 µM. GLKGAVTLT: in the assay with HLA-A*02:01 [2], the Kd was no less than 50 µM. As to GLVSLVENA, the IC50 with HLA-A*02:01 [1] worked out at 0.532 µM. For the sequence ILLGIFFLC, in the assay with HLA-A*02:01 [2], the Kd is 5.56 µM. Regarding ILLLEAGAL, the Kd with HLA-A*02:01 [2] is 4.76 µM. Consider LLCLVVFFL, for which the IC50 with HLA-A*02:01 [1] came to 0.676 µM. Take LLVSGSNVL: in the assay with HLA-A*02:01 [2], the Kd was 1.41 µM. As for LVLMAVLYV, the Kd with HLA-A*02:01 [2] was found to be 1.21 µM. Still for that read-out and setting: the figure for MLARACQHA is 1.64 µM.

As for NGMLIMCNA, in the assay with HLA-A*02:01 [2], the Kd was determined as 16.7 µM. On the same count and under the same terms, under QLGLAANQT stands no less than 50 µM; under SLCFLGAIA, no less than 10 µM.

For the sequence SLNSTPTAI, the IC50 with HLA-A*02:01 [1] is 0.633 µM. On the same count and under the same terms, under SLVENALVV stands 0.429 µM. Turning to SVIDPLIYA, in the assay with HLA-A*02:01 [2], the Kd was found to be 1.19 µM.

Turning to TILIGVFVV, in the assay with HLA-A*02:01 [2], the Kd amounted to 4.54 µM. Turning to TILLGIFFL, the IC50 with HLA-A*02:01 [1] came to 0.455 µM. Regarding TILLGVFIF, in the assay with HLA-A*02:01 [2], the dissociation constant Kd is 4.54 µM. Regarding TLPRARRRV, in the assay with HLA-A*02:01 [2], the Kd was no less than 25 µM. For VLETAVGLL, in the assay with HLA-A*02:01 [1], the IC50 was found to be 0.238 µM. Take YLILIMCNS: the Kd with HLA-A*02:01 [2] was 6.25 µM.

In the case of YLVLINCNS, the Kd with HLA-A*02:01 [2] is 2.17 µM.
